# Measurements published in the supplement of paper PMC9112550, “Optimization of the antimicrobial peptide Bac7 by deep mutational scanning” (BMC Biology, 2022).
# System: Escherichia coli TOP10
# Assay: shrunken log2 fold change of peptide-encoding DNA abundance (4.5 h post-induction vs induction); higher = less antimicrobial activity (less host growth inhibition)
# Settings: time post-induction: 4.5 h; library: site-saturation at positions 5, 18, 19, 20
# 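Also: peptides expressed intracellularly from a pBAD plasmid library in pooled LB shake-flask culture, induced with 0.3% L-arabinose, DNA abundance read by NGS, three biological replicates, DESeq2 with apeglm shrinkage.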
row,Sequence,shrunken log2 fold change
1,RRIRRRPPRLPRPRPRPNGNPRP,0.0494
2,RRIRRRPPRLPRPRPRPNHGPRP,-0.0793
3,RRIRRRPPRLPRPRPRPNLTPRP,-0.245
4,RRIRRRPPRLPRPRPRPNMRPRP,0.104
5,RRIRRRPPRLPRPRPRPNPGPRP,-0.035
6,RRIRRRPPRLPRPRPRPNPQPRP,0.631
7,RRIRRRPPRLPRPRPRPNRVPRP,-0.0133
8,RRIRRRPPRLPRPRPRPNSEPRP,0.381
9,RRIRRRPPRLPRPRPRPNSPPRP,-0.0118
10,RRIRRRPPRLPRPRPRPNTFPRP,0.085
11,RRIRRRPPRLPRPRPRPNWFPRP,-0.0681
12,RRIRRRPPRLPRPRPRPNYPPRP,0.0594
13,RRIRRRPPRLPRPRPRPNYTPRP,-0.44
14,RRIRRRPPRLPRPRPRPPALPRP,0.635
15,RRIRRRPPRLPRPRPRPPDWPRP,0.618
16,RRIRRRPPRLPRPRPRPPFCPRP,0.627
17,RRIRRRPPRLPRPRPRPPFVPRP,0.675
18,RRIRRRPPRLPRPRPRPPGFPRP,0.468
19,RRIRRRPPRLPRPRPRPPGQPRP,0.422
20,RRIRRRPPRLPRPRPRPPHVPRP,0.915
21,RRIRRRPPRLPRPRPRPPLDPRP,1.24
22,RRIRRRPPRLPRPRPRPPLEPRP,0.739
23,RRIRRRPPRLPRPRPRPPNCPRP,0.15
24,RRIRRRPPRLPRPRPRPPPEPRP,1.37
25,RRIRRRPPRLPRPRPRPPPGPRP,1.05

row,Sequence,shrunken log2 fold change
1,RRIRRRPPRLPRPRPRPPPPPRP,1.03
2,RRIRRRPPRLPRPRPRPPQDPRP,1.39
3,RRIRRRPPRLPRPRPRPPRLPRP,1.1
4,RRIRRRPPRLPRPRPRPPTCPRP,0.474
5,RRIRRRPPRLPRPRPRPPTIPRP,0.324
6,RRIRRRPPRLPRPRPRPPVDPRP,0.241
7,RRIRRRPPRLPRPRPRPPWAPRP,0.729
8,RRIRRRPPRLPRPRPRPPWWPRP,0.862
9,RRIRRRPPRLPRPRPRPQELPRP,0.158
10,RRIRRRPPRLPRPRPRPQERPRP,-0.0784
11,RRIRRRPPRLPRPRPRPQHSPRP,-0.0462
12,RRIRRRPPRLPRPRPRPQIEPRP,0.694
13,RRIRRRPPRLPRPRPRPQKYPRP,-0.696
14,RRIRRRPPRLPRPRPRPQLRPRP,0.213
15,RRIRRRPPRLPRPRPRPQMQPRP,-0.205
16,RRIRRRPPRLPRPRPRPQNAPRP,0.0513
17,RRIRRRPPRLPRPRPRPQNWPRP,0.199
18,RRIRRRPPRLPRPRPRPQPIPRP,0.206
19,RRIRRRPPRLPRPRPRPQPVPRP,0.299
20,RRIRRRPPRLPRPRPRPQQCPRP,0.15
21,RRIRRRPPRLPRPRPRPQQGPRP,0.0446
22,RRIRRRPPRLPRPRPRPQVRPRP,-0.0161
23,RRIRRRPPRLPRPRPRPQVSPRP,0.0704
24,RRIRRRPPRLPRPRPRPQWNPRP,-0.153
25,RRIRRRPPRLPRPRPRPQWYPRP,-0.258

row,Sequence,shrunken log2 fold change
1,RRIRRRPPRLPRPRPRPQYKPRP,-0.401
2,RRIRRRPPRLPRPRPRPRADPRP,0.461
3,RRIRRRPPRLPRPRPRPRAWPRP,-0.0407
4,RRIRRRPPRLPRPRPRPRCLPRP,0.219
5,RRIRRRPPRLPRPRPRPRDLPRP,0.427
6,RRIRRRPPRLPRPRPRPRDSPRP,-0.0748
7,RRIRRRPPRLPRPRPRPRDWPRP,1.01
8,RRIRRRPPRLPRPRPRPRFPPRP,0.676
9,RRIRRRPPRLPRPRPRPRGIPRP,0.169
10,RRIRRRPPRLPRPRPRPRIIPRP,0.0728
11,RRIRRRPPRLPRPRPRPRKEPRP,0.4
12,RRIRRRPPRLPRPRPRPRLMPRP,0.316
13,RRIRRRPPRLPRPRPRPRNEPRP,0.18
14,RRIRRRPPRLPRPRPRPRNQPRP,-0.0577
15,RRIRRRPPRLPRPRPRPRPGPRP,0.557
16,RRIRRRPPRLPRPRPRPRPMPRP,0.76
17,RRIRRRPPRLPRPRPRPRPWPRP,0.737
18,RRIRRRPPRLPRPRPRPRQWPRP,0.169
19,RRIRRRPPRLPRPRPRPRRCPRP,0.615
20,RRIRRRPPRLPRPRPRPRSYPRP,0.0753
21,RRIRRRPPRLPRPRPRPRTMPRP,0.221
22,RRIRRRPPRLPRPRPRPRWKPRP,-0.0516
23,RRIRRRPPRLPRPRPRPSANPRP,0.326
24,RRIRRRPPRLPRPRPRPSCCPRP,-0.0867
25,RRIRRRPPRLPRPRPRPSDHPRP,-0.0811

row,Sequence,shrunken log2 fold change
1,RRIRRRPPRLPRPRPRPSDVPRP,-0.374
2,RRIRRRPPRLPRPRPRPSEDPRP,0.0524
3,RRIRRRPPRLPRPRPRPSEHPRP,0.453
4,RRIRRRPPRLPRPRPRPSGDPRP,0.233
5,RRIRRRPPRLPRPRPRPSHAPRP,0.232
6,RRIRRRPPRLPRPRPRPSHSPRP,-0.00512
7,RRIRRRPPRLPRPRPRPSICPRP,0.00217
8,RRIRRRPPRLPRPRPRPSISPRP,-0.774
9,RRIRRRPPRLPRPRPRPSLHPRP,0.114
10,RRIRRRPPRLPRPRPRPSLKPRP,0.108
11,RRIRRRPPRLPRPRPRPSLWPRP,0.293
12,RRIRRRPPRLPRPRPRPSMEPRP,0.0198
13,RRIRRRPPRLPRPRPRPSMMPRP,-0.216
14,RRIRRRPPRLPRPRPRPSPTPRP,0.598
15,RRIRRRPPRLPRPRPRPSQRPRP,0.0863
16,RRIRRRPPRLPRPRPRPSSAPRP,0.421
17,RRIRRRPPRLPRPRPRPSTAPRP,0.297
18,RRIRRRPPRLPRPRPRPSTQPRP,-0.245
19,RRIRRRPPRLPRPRPRPSTSPRP,0.0625
20,RRIRRRPPRLPRPRPRPSVLPRP,-0.0526
21,RRIRRRPPRLPRPRPRPSWFPRP,0.165
22,RRIRRRPPRLPRPRPRPSWWPRP,0.327
23,RRIRRRPPRLPRPRPRPTDMPRP,-0.0645
24,RRIRRRPPRLPRPRPRPTDQPRP,0.552
25,RRIRRRPPRLPRPRPRPTFDPRP,0.425

row,Sequence,shrunken log2 fold change
1,RRIRRRPPRLPRPRPRPTHDPRP,0.89
2,RRIRRRPPRLPRPRPRPTIKPRP,-0.0992
3,RRIRRRPPRLPRPRPRPTILPRP,-0.0149
4,RRIRRRPPRLPRPRPRPTITPRP,0.0541
5,RRIRRRPPRLPRPRPRPTLDPRP,0.809
6,RRIRRRPPRLPRPRPRPTLTPRP,0.466
7,RRIRRRPPRLPRPRPRPTNCPRP,-0.197
8,RRIRRRPPRLPRPRPRPTPMPRP,1.08
9,RRIRRRPPRLPRPRPRPTPTPRP,1.14
10,RRIRRRPPRLPRPRPRPTQEPRP,0.212
11,RRIRRRPPRLPRPRPRPTTAPRP,0.541
12,RRIRRRPPRLPRPRPRPTWCPRP,0.0593
13,RRIRRRPPRLPRPRPRPTWGPRP,0.42
14,RRIRRRPPRLPRPRPRPTWPPRP,0.647
15,RRIRRRPPRLPRPRPRPTWQPRP,0.459
16,RRIRRRPPRLPRPRPRPTYSPRP,-0.116
17,RRIRRRPPRLPRPRPRPTYVPRP,0.00831
18,RRIRRRPPRLPRPRPRPTYYPRP,-0.0395
19,RRIRRRPPRLPRPRPRPVASPRP,0.0932
20,RRIRRRPPRLPRPRPRPVAVPRP,0.348
21,RRIRRRPPRLPRPRPRPVCSPRP,0.225
22,RRIRRRPPRLPRPRPRPVDCPRP,0.12
23,RRIRRRPPRLPRPRPRPVDKPRP,0.0213
24,RRIRRRPPRLPRPRPRPVDLPRP,0.332
25,RRIRRRPPRLPRPRPRPVFYPRP,-0.0199

row,Sequence,shrunken log2 fold change
1,RRIRRRPPRLPRPRPRPVGLPRP,0.111
2,RRIRRRPPRLPRPRPRPVIWPRP,0.185
3,RRIRRRPPRLPRPRPRPVKIPRP,0.266
4,RRIRRRPPRLPRPRPRPVLGPRP,0.528
5,RRIRRRPPRLPRPRPRPVMGPRP,0.0569
6,RRIRRRPPRLPRPRPRPVMQPRP,0.316
7,RRIRRRPPRLPRPRPRPVNLPRP,0.219
8,RRIRRRPPRLPRPRPRPVPGPRP,0.402
9,RRIRRRPPRLPRPRPRPVQGPRP,0.223
10,RRIRRRPPRLPRPRPRPVQMPRP,0.158
11,RRIRRRPPRLPRPRPRPVQNPRP,0.285
12,RRIRRRPPRLPRPRPRPVRLPRP,1.08
13,RRIRRRPPRLPRPRPRPVRVPRP,0.791
14,RRIRRRPPRLPRPRPRPVSWPRP,0.849
15,RRIRRRPPRLPRPRPRPVTWPRP,0.182
16,RRIRRRPPRLPRPRPRPVVFPRP,0.286
17,RRIRRRPPRLPRPRPRPVVLPRP,-0.0732
18,RRIRRRPPRLPRPRPRPVWGPRP,0.359
19,RRIRRRPPRLPRPRPRPVWTPRP,0.436
20,RRIRRRPPRLPRPRPRPVWYPRP,0.18
21,RRIRRRPPRLPRPRPRPWAAPRP,0.403
22,RRIRRRPPRLPRPRPRPWAIPRP,-0.0356
23,RRIRRRPPRLPRPRPRPWAMPRP,-0.136
24,RRIRRRPPRLPRPRPRPWANPRP,0.0142
25,RRIRRRPPRLPRPRPRPWATPRP,0.0893
